Data from patent US20220202913, “NOVEL OMNI-50 CRISPR NUCLEASE” (EmendoBio Inc., published 2022).

T1: OMNI-50 (Ezakiella peruensis strain M6.X2)
T1 sequence: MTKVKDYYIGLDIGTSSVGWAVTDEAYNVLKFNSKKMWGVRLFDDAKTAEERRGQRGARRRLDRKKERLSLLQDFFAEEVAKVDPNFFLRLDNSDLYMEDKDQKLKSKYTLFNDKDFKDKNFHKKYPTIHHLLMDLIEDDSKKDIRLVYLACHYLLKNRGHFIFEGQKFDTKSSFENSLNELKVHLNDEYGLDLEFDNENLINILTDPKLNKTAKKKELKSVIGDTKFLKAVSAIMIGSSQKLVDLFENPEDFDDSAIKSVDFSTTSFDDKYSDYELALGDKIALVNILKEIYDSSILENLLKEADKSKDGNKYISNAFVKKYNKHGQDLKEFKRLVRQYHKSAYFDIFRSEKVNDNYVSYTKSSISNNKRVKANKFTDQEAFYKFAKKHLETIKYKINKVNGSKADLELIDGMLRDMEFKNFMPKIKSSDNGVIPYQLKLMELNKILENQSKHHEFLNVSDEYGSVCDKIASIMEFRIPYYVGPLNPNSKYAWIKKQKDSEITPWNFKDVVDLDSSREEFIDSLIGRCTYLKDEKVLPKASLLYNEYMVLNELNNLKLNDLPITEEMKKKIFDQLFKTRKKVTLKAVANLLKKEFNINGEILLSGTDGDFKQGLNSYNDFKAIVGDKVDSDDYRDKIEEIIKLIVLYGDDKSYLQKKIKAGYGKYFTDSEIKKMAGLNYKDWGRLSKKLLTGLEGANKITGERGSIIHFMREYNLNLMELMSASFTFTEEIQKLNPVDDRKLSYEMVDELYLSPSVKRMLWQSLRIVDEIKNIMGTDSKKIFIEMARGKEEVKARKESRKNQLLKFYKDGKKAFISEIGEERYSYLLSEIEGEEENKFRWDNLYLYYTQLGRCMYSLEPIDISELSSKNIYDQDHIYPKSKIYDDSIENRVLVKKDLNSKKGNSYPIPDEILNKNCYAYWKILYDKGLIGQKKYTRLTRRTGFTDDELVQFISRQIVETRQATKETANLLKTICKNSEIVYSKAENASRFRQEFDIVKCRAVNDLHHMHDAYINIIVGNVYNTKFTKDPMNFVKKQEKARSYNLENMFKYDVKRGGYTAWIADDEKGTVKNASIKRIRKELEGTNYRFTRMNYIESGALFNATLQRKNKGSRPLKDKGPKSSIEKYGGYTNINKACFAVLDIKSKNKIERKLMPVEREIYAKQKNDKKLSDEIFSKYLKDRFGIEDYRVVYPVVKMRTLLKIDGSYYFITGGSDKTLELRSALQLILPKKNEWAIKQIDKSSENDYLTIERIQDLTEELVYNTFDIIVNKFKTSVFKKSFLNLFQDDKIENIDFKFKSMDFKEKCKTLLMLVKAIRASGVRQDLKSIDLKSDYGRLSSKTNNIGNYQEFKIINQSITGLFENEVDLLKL

T2: OMNI-50 (Ezakiella peruensis strain M6.X2)
T2 chain: T1 sequence

B1: ELANE g35 sgRNA V2 22 nt spacer ; ELANE g35 on-target (ssRNA ; dsDNA)
RNA: GCAGUCCGGGCUGGGAGCGGGUGUUUGAGAGUUAUGUAAGAAAUUACAUGACGAGUUCAAAUAAAAAUUUAUUCAAACCGCCUAUUUAUAGGCCGCAGAUGUUCUGCAUUAUGCUUGCUAUUGCAAGCUUUUUU
DNA 1: CTGTTGCTGCAGTCCGGGCTGGGAGCGGGTGGGGAGCAGAGGG
DNA 2: CCCTCTGCTCCCCACCCGCTCCCAGCCCGGACTGCAGCAACAG
modifications: three 2'-OMe 3'-PS at 5' and 3' ends
B2: ELANE g35 sgRNA V2 20 nt spacer ; ELANE g35 on-target (ssRNA ; dsDNA)
RNA: AGUCCGGGCUGGGAGCGGGUGUUUGAGAGUUAUGUAAGAAAUUACAUGACGAGUUCAAAUAAAAAUUUAUUCAAACCGCCUAUUUAUAGGCCGCAGAUGUUCUGCAUUAUGCUUGCUAUUGCAAGCUUUUUU
DNA 1: B1 DNA 1
DNA 2: B1 DNA 2
modifications: three 2'-OMe 3'-PS at 5' and 3' ends
B3: ELANE g35 sgRNA V2 17 nt spacer ; ELANE g35 on-target (ssRNA ; dsDNA)
RNA: CCGGGCUGGGAGCGGGUGUUUGAGAGUUAUGUAAGAAAUUACAUGACGAGUUCAAAUAAAAAUUUAUUCAAACCGCCUAUUUAUAGGCCGCAGAUGUUCUGCAUUAUGCUUGCUAUUGCAAGCUUUUUU
DNA 1: B1 DNA 1
DNA 2: B1 DNA 2
modifications: three 2'-OMe 3'-PS at 5' and 3' ends

Tests used:
[1] = test system: T1, OMNI-50 (Ezakiella peruensis strain M6.X2); assay: cleavage_in_vitro; settings: TXTL PAM depletion, PAM NGG; some activity with NAG and NGA; sgRNA V1 and V2
[2] = target: T2, OMNI-50; assay: cell_activity; PAM NGG; RNP in U2OS; settings: tags: SV40 NLS N-terminal, HA-SV40 NLS-8xHis C-terminal (pET9a)
Protocol: FIG. 5A-FIG. 5D: OMNI-50 activity Assay as RNP. OMNI-50 nuclease was over-expressed and purified. The purified protein was complexed with synthetic sgRNA to form RNPs. For the in-vitro assays (FIG. 5A and FIG. 5B) RNPs were incubated with a linear DNA template containing the corresponding target and PAM sequences (listed in Table 5). Activity was verified by cleavage of the linear template. For the in-vivo assays (FIG. 5C and FIG. 5D), U2OS cells were electroporated with RNPs and activity was determined by measurement of indel frequency by NGS. FIG. 5A: Activity assay of OMNI-50 RNP with different spacer lengths (17-23 bps) of guide 35 (Table 10). FIG. 5B: Decreasing amounts of RNPs (4 pmol, 2 pmol, 1.2 pmol, 0.6 pmol and 0.2 pmol) with spacer lengths 20-23 nts were incubated with 100 ng DNA target template. FIG. 5C: Activity assay for OMNI-50 as RNP in U2OS cells: RNPs with spacer lengths 17-23 bps were electroporated into U2OS cell line and editing levels (indels) measured by NGS. FIG. 5D: Activity assay for OMNI-50 as RNP in U2OS cells: RNPs with ELANE g35 sgRNA V1-V4 were electroporated into U2OS cell line and editing levels (indels) measured by NGS.
Spacer length optimization was also performed in a mammalian cell context. RNPs were assembled by mixing 100 uM nuclease with 120 uM of synthetic guide with different spacer lengths (17-23 nt, Table 5) and 100 uM Cas9 electroporation enhancer (IDT). After 10 minutes of incubation at room temperature, the RNP complexes were mixed with 200,000 pre-washed U2OS, iPSC, or HSC cells and electroporated using Lonza SE or P3 Cell Line 4D-Nucleofector™ X Kit with the DN100 or CA137 program, respectively, according to the manufacture's protocol. At 72 h cells were lysed and their genomic DNA was used in a PCR reaction to amplify the corresponding putative genomic targets. Amplicons were subjected to NGS and the resulting sequences were then used to calculate the percentage of editing events.

Molecule	activity (1-depletion score) [1]	activity [2] [% indels]
GGAAGAGCAGAGCCUUGGUCUCGUUUGAGAGUUAUGUAAGAAAUUACAUGACGAGUUCAAAUAAAAAUUUAUUCAAACCGCCUAUUUAUAGGCCGCAGAUGUUCUGCAUUAUGCUUGCUAUUGCAAGCUUUUUU / GGAAGAGCAGAGCCTTGGTCTCNNNNNNNN / NNNNNNNNGAGACCAAGGCTCTGCTCTTCC [T2 sgRNA V2 ; T2 protospacer 8N PAM library]	0.98	
B1		90.9
B2		43.8
B3		0.54
